Source: PMC4161475, “EhCoactosin Stabilizes Actin Filaments in the Protist Parasite Entamoeba histolytica” (PLoS Pathogens, 2014)

B1: EhCoactosin with the N-terminal seven amino acid residues deleted (domain or fragment)
chain: EVAGPVAEVIDDKNEEVEFVVFGVQTQPNKLVVDAKGKGGLEEVKAALKEDALQFAYYRTISGDEESKRVKFVFISWAGEGIKKPKLRAVMSILKGDVKNVINNFHIELHATSLDDLVEDEIAAKIKKAGGADYSFNTTSN
notes: Coactosin of Entamoeba histolytica, NCBI XP_650926.1, 7 residues deleted from the N terminus; The tag is told for the EhCoactosin gene in pET28b; also called EhCoΔN; N-terminal truncation mutant; source: E. coli BL21 (DE3), purified (Nickel-NTA, Superdex 75 gel filtration)
B2: EhCoactosin, full-length wild type (natural protein)
chain: MSGFDLSEVAGPVAEVIDDKNEEVEFVVFGVQTQPNKLVVDAKGKGGLEEVKAALKEDALQFAYYRTISGDEESKRVKFVFISWAGEGIKKPKLRAVMSILKGDVKNVINNFHIELHATSLDDLVEDEIAAKIKKAGGADYSFNTTSN
notes: Cloned in pET28b between NcoI and XhoI; also called EhCoWT; WT EhCoactosin; source: E. coli BL21 (DE3), purified (Nickel-NTA, Superdex 75 gel filtration)

Target: G-actin (rabbit skeletal muscle actin, monomeric) (rabbit, UniProt P68135 1-377)
Test: ELISA; solid-phase assay: wells coated with 5 µM G-actin in PBS, 5 µM protein added, detected with anti-EhCoactosin antibody; in the presence of Ca2+ (2 mM) or EGTA (5 mM)
Conditions: both partners purified

| Binder | fold increase in binding against WT [fold] | fold of the level of binding of EhCaBP1 [fold] |
| --- | --- | --- |
| B1 | 2 | – |
| B2 | – | 2 |
